± gives the uncertainty stated by the source.
B1: Gamma-crystallin S, residues 96 to 176; numbered along this chain, P22914 (parent)
chain: IQIFEKGDFSGQMYETTEDCPSIMEQFHMREIHSCKVLEGVWIFYELPNYRGRQYLLDKKEYRKPIDWGAASPAVQSFRRI
B2: Chromodomain-helicase-DNA-binding protein 5, residues 411 to 463; numbered along this chain, Q8TDI0 (parent)
chain: EEDDHMEFCRVCKDGGELLCCDACPSSYHLHCLNPPLPEIPNGEWLCPRCTCP

Variants of: B1
Assay: abundance fitness (aPCA) (normalised: wild type 0, dead -1); higher = more abundant; growth selection in yeast, the domain comes from the species named
Settings: Homo sapiens
Variant E5T has an abundance fitness of -0.07 ± 0.094.
With E5C the abundance fitness was -0.022 ± 0.064.
E5M gave an abundance fitness of 0.028 ± 0.12.
Work on E5P yielded an abundance fitness of -0.01 ± 0.065.
With E5F the abundance fitness was 0.057 ± 0.084.
E5S gave an abundance fitness of -0.046 ± 0.04.
Work on E5K yielded an abundance fitness of -0.007 ± 0.094.
Work on E5I yielded an abundance fitness of 0.014 ± 0.086.
E5N gave an abundance fitness of -0.062 ± 0.13.
For E5Y, the abundance fitness was 0.083 ± 0.1.
Variant S10W has an abundance fitness of -0.047 ± 0.051.
S10Q showed an abundance fitness of 0.022 ± 0.069.
With S10P the abundance fitness was -0.733 ± 0.097.
Variant S10C has an abundance fitness of -0.081 ± 0.088.
In the case of S10A, the abundance fitness is reported as -0.039 ± 0.052.
Variant S10G has an abundance fitness of -0.004 ± 0.038.
With S10T the abundance fitness was -0.157 ± 0.061.
With S10L the abundance fitness was 0.005 ± 0.041.
For S10F, the abundance fitness was -0.091 ± 0.088.
S10N showed an abundance fitness of 0.069 ± 0.1.
Variant S10R has an abundance fitness of -0.018 ± 0.038.
For S10I, the abundance fitness was -0.059 ± 0.091.
Variant S10D has an abundance fitness of -0.12 ± 0.1.
For S10M, the abundance fitness was -0.033 ± 0.068.
S10V gave an abundance fitness of -0.003 ± 0.045.
S10Y showed an abundance fitness of 0.068 ± 0.089.
Work on S10E yielded an abundance fitness of 0.013 ± 0.064.
Variant S10K has an abundance fitness of 0.006 ± 0.08.
With F4N the abundance fitness was -0.231 ± 0.11.
Work on F4D yielded an abundance fitness of -0.971 ± 0.2.
Work on F4A yielded an abundance fitness of -0.275 ± 0.05.
In the case of F4G, the abundance fitness is reported as -0.414 ± 0.042.
F4S gave an abundance fitness of -0.113 ± 0.031.
F4V showed an abundance fitness of -0.906 ± 0.082.
F4W showed an abundance fitness of -0.067 ± 0.056.
In the case of F4E, the abundance fitness is reported as -1.16 ± 0.23.
In the case of F4P, the abundance fitness is reported as -0.967 ± 0.18.
Work on F4K yielded an abundance fitness of -0.193 ± 0.19.
Work on F4C yielded an abundance fitness of -0.008 ± 0.079.
Variant F4Q has an abundance fitness of -0.868 ± 0.14.
For F4M, the abundance fitness was -0.045 ± 0.064.
With F4H the abundance fitness was -0.017 ± 0.095.
F4I gave an abundance fitness of -0.987 ± 0.14.
In the case of F4Y, the abundance fitness is reported as -0.094 ± 0.096.
F4R gave an abundance fitness of -0.945 ± 0.11.
With F4T the abundance fitness was -0.585 ± 0.094.

Variants of: B2
Assay: as above
Settings: Homo sapiens
With R10K the abundance fitness was -0.218 ± 0.12.
R10F gave an abundance fitness of 0.178 ± 0.12.
With R10S the abundance fitness was -0.089 ± 0.055.
V11M showed an abundance fitness of -0.008 ± 0.058.
In the case of E7Y, the abundance fitness is reported as -0.527 ± 0.17.
Work on E7D yielded an abundance fitness of 0.031 ± 0.085.
In the case of E7S, the abundance fitness is reported as -0.215 ± 0.084.
E7P gave an abundance fitness of -0.368 ± 0.07.
Work on E2D yielded an abundance fitness of -0.565 ± 0.19.
In the case of E2C, the abundance fitness is reported as -0.398 ± 0.14.
For E2I, the abundance fitness was 0.392 ± 0.13.
In the case of E2S, the abundance fitness is reported as -0.062 ± 0.12.
C21N gave an abundance fitness of -1.03 ± 0.15.
C21L showed an abundance fitness of -0.999 ± 0.071.
For C21A, the abundance fitness was -0.83 ± 0.061.
In the case of L33R, the abundance fitness is reported as -0.6 ± 0.053.
L33A showed an abundance fitness of -0.171 ± 0.046.
Variant M6T has an abundance fitness of 0.136 ± 0.096.
M6A showed an abundance fitness of 0.059 ± 0.074.
Work on M6Y yielded an abundance fitness of -0.401 ± 0.099.
In the case of P35Q, the abundance fitness is reported as -0.12 ± 0.063.
In the case of P35E, the abundance fitness is reported as 0.034 ± 0.079.
For P35N, the abundance fitness was -0.172 ± 0.096.
With P35Y the abundance fitness was -0.476 ± 0.099.
Work on P35H yielded an abundance fitness of -0.353 ± 0.1.
With G43D the abundance fitness was -0.238 ± 0.11.
C50K showed an abundance fitness of -0.598 ± 0.065.
C50I showed an abundance fitness of -0.751 ± 0.059.
With T51G the abundance fitness was -0.052 ± 0.063.
W45Q gave an abundance fitness of -0.506 ± 0.061.
Variant C24L has an abundance fitness of -1.15 ± 0.15.
For C24Y, the abundance fitness was -0.606 ± 0.14.
In the case of C24N, the abundance fitness is reported as -0.904 ± 0.43.
In the case of C24V, the abundance fitness is reported as -0.589 ± 0.072.
K13T showed an abundance fitness of -0.311 ± 0.046.
In the case of K13N, the abundance fitness is reported as 0.075 ± 0.1.
In the case of K13M, the abundance fitness is reported as -0.18 ± 0.071.
L18I gave an abundance fitness of 0.035 ± 0.14.
L18N showed an abundance fitness of -0.932 ± 0.49.
Variant A23T has an abundance fitness of 0.08 ± 0.054.
Variant S26V has an abundance fitness of 0.02 ± 0.063.
S26H gave an abundance fitness of -0.008 ± 0.067.
With S26D the abundance fitness was 0.011 ± 0.099.
In the case of S26A, the abundance fitness is reported as 0.044 ± 0.054.
In the case of L19I, the abundance fitness is reported as 0.26 ± 0.098.
Work on L19Y yielded an abundance fitness of 0.099 ± 0.14.
For L19T, the abundance fitness was -0.169 ± 0.11.
For D4I, the abundance fitness was 0.184 ± 0.063.
D4E gave an abundance fitness of -0.131 ± 0.043.
Work on D4M yielded an abundance fitness of 0.156 ± 0.043.
With D4H the abundance fitness was 0.17 ± 0.044.
E39G gave an abundance fitness of -0.135 ± 0.092.
E39R gave an abundance fitness of -0.301 ± 0.088.
With P38C the abundance fitness was -0.63 ± 0.43.
With P38L the abundance fitness was 0.263 ± 0.15.
Variant E44G has an abundance fitness of -0.027 ± 0.045.
Variant E44L has an abundance fitness of -0.186 ± 0.058.
For E44D, the abundance fitness was 0.051 ± 0.061.
E44C gave an abundance fitness of -0.026 ± 0.068.
P36S gave an abundance fitness of -0.023 ± 0.066.
Variant P36G has an abundance fitness of -0.169 ± 0.06.
P36K showed an abundance fitness of 0.088 ± 0.11.
For P36Y, the abundance fitness was -0.838 ± 0.22.
C12W gave an abundance fitness of -0.552 ± 0.11.
D14V showed an abundance fitness of -0.157 ± 0.12.
With C9T the abundance fitness was -0.56 ± 0.074.
Work on C9S yielded an abundance fitness of -0.807 ± 0.072.
For C9F, the abundance fitness was -0.715 ± 0.18.
C9R gave an abundance fitness of -0.629 ± 0.062.
For P48E, the abundance fitness was 0.177 ± 0.11.
For P48F, the abundance fitness was 0.31 ± 0.12.
Variant P48I has an abundance fitness of -0.312 ± 0.24.
For P48S, the abundance fitness was -0.025 ± 0.071.
For D3H, the abundance fitness was -0.015 ± 0.046.
Work on D3C yielded an abundance fitness of -0.763 ± 0.065.
Variant L37W has an abundance fitness of -0.109 ± 0.049.
D22Y showed an abundance fitness of -0.059 ± 0.044.
With D22S the abundance fitness was 0.034 ± 0.041.
Work on D22G yielded an abundance fitness of 0.049 ± 0.05.
D22W showed an abundance fitness of -0.082 ± 0.064.
With H31Y the abundance fitness was -0.455 ± 0.12.
With H31P the abundance fitness was -0.406 ± 0.13.
In the case of C32V, the abundance fitness is reported as -0.963 ± 0.093.
C32M gave an abundance fitness of -0.736 ± 0.15.
With H5I the abundance fitness was -0.02 ± 0.067.
Variant H5K has an abundance fitness of 0.023 ± 0.042.
Variant H5C has an abundance fitness of -0.319 ± 0.094.
In the case of G16S, the abundance fitness is reported as -0.023 ± 0.11.
Variant G16L has an abundance fitness of -0.28 ± 0.078.
S27D showed an abundance fitness of -0.3 ± 0.073.
E17H gave an abundance fitness of -0.138 ± 0.041.
For E17N, the abundance fitness was -0.063 ± 0.061.
Work on E17T yielded an abundance fitness of 0.03 ± 0.055.
E17I showed an abundance fitness of -0.102 ± 0.045.
Work on N34I yielded an abundance fitness of -0.132 ± 0.15.
With N34E the abundance fitness was -0.036 ± 0.069.
N34M gave an abundance fitness of -0.221 ± 0.11.
Work on L30Y yielded an abundance fitness of -0.019 ± 0.08.
Work on L30M yielded an abundance fitness of 0.137 ± 0.062.
In the case of R49F, the abundance fitness is reported as 0.011 ± 0.1.
With R49Y the abundance fitness was -0.088 ± 0.1.
With N42D the abundance fitness was -0.028 ± 0.049.
For N42M, the abundance fitness was -0.137 ± 0.088.
Work on C20V yielded an abundance fitness of 0.007 ± 0.052.
C20L gave an abundance fitness of 0.006 ± 0.047.
With C20M the abundance fitness was -0.017 ± 0.081.
Variant C20I has an abundance fitness of 0.073 ± 0.06.
With C20Y the abundance fitness was 0.125 ± 0.092.
Variant G15N has an abundance fitness of -0.359 ± 0.12.
Variant G15T has an abundance fitness of 0.036 ± 0.062.
For G15Q, the abundance fitness was 0.047 ± 0.1.
Variant G15V has an abundance fitness of -0.061 ± 0.092.
Variant C47D has an abundance fitness of -0.678 ± 0.15.
With C47T the abundance fitness was -0.551 ± 0.12.
In the case of L46G, the abundance fitness is reported as -0.502 ± 0.081.
Variant L46V has an abundance fitness of -0.017 ± 0.054.
Variant L46W has an abundance fitness of -0.155 ± 0.083.
L46F showed an abundance fitness of 0.101 ± 0.091.
In the case of H29I, the abundance fitness is reported as -1.2 ± 0.49.
For H29P, the abundance fitness was -0.732 ± 0.15.
In the case of F8G, the abundance fitness is reported as 0.033 ± 0.044.
